Assay results published in patent US20060073148A1.

Key:
[1] = molecular target: native human IL-13 (crude preparation from activated human cord blood Th2 cells) (human) (UniProt P35225); assay: cell-based or functional assay
[2] = molecular target: cynomolgus monkey IL-13 (NHP IL-13), recombinant (cynomolgus monkey); assay: cell-based or functional assay
cynomolgus monkey IL-13 (NHP IL-13), recombinant (cynomolgus monkey), sequence (Q5I6E4 other isoform, or with tags, fused parts or gaps): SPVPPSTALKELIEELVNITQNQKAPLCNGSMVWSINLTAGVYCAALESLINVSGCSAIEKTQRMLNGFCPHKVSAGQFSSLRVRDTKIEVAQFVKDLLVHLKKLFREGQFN

native human IL-13 (crude preparation from activated human cord blood Th2 cells) (human), sequence (P35225 other isoform, or with tags, fused parts or gaps, form in doubt): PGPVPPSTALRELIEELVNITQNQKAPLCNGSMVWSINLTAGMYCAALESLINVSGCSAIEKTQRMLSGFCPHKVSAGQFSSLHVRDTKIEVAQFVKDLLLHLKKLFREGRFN

IC50, STAT6 phosphorylation assay [1]: 0.554 nM
IC50, CD23 expression assay [2]: 0.308 nM
B1: antibody with the murine heavy chain of MJ2-7 and a humanized light chain (antibody, part only; not given: humanized light chain, V domains shown, part only)
VH: EVQLQQSGAELVKPGASVKLSCTGSGFNIKDTYIHWVKQRPEQGLEWIGRIDPANDNIKYDPKFQGKATITADTSSNTAYLQLNSLTSEDTAVYYCARSEENWYDFFDYWGQGTTLTVSS
